Molecular target: the molecule itself
Test: SEC-SAXS; purified FLAG-FlbB-His6 at 4 mg/ml, 10 mM HEPES, 140 mM NaCl, pH 7.3; Shodex 802.5 SEC column, SIBYLS beamline 12.3.1; molecular weight from the volume of correlation

B1: FLAG-FlbB-His6 (deleted the first 42 aa from the FlbB) (domain or fragment)
chain: FPEFVRTKLLGETSLVFDHNSNIILDEARLVKEREAIDIKNQQIEKLKEDLKLKEDSLNKLEFELKQKQKDLDLKQKVIDDIINKYNDEEANILQTAVYLMNMPPEDAVKRLEDLNPELAISYMRKIEELSKKEGRLSIVPYWLSLMDSKKAAILIRKMSVSSLE
notes: FlbB, periplasmic flagellar collar protein of Borrelia burgdorferi (205 amino acids); the first 42 aa (with the N-terminal transmembrane helix) deleted; The deletion of the first 42 aa is stated only for the SEC-SAXS sample; Monomer estimated at 20.85 kDa; also called FlbB-6His; source: E. coli codon plus cells; in lysate of mixed cells (pull-downs); purified recombinant (SEC-SAXS, far-western); …
stoichiometry N: 2

Source: paper PMC11750108, “FlbB forms a distinctive ring essential for periplasmic flagellar assembly and motility in Borrelia burgdorferi” (PLOS Pathogens, 2025)
